System: inguinal fat
Test: Irisin injection in mice: Ucp1/Dio2 mRNA and Ucp1 protein in inguinal fat
Format: in vivo
Description: FIG. 18A-FIG. 18B show mRNA and protein levels of indicated genes. 1 mg/kg irisin was injected to 8-week old mice every other day for 6 days. mRNA levels of indicated genes in inguinal fat were analyzed by qRT-PCR. Cyclophilin was used for housekeeping gene (FIG. 18A). Inguinal fats were also lysed to detect the indicated protein level using immunoblot analysis (FIG. 18B). FIGS. 18C and 18D show mRNA and protein levels of indicated genes. Mice were treated and analyzed as (A-B) with addition of coinjection of […] control RGD peptide or cyclo RGDyK (cRGDyK). mRNA levels of indicated genes in inguinal fat were analyzed by qRT-PCR. Cyclophilin was used for house-keeping gene (FIG. 18C). Inguinal fats were also lysed to detect the indicated protein level using immunoblot analysis (FIG. 18D). […] Ucp1 mRNA level was analyzed by qRT-PCR. […]
RNA was extracted from cultured cells or frozen tissues using TRIzol® (Thermo Fischer Scientific) and purified with RNeasy® mini kit (QIAGEN 74106). […] To perform qRT-PCR analysis, normalized RNA was reverse transcribed using a high-capacity cDNA reverse-transcription kit (Applied Biosystems™). cDNA was analyzed by qRT-PCR with indicated primers. Relative mRNA levels were calculated using the comparative CT method and normalized to cyclophilin mRNA. […]

B1: irisin: secreted cleaved form of FNDC5; recombinant human/mouse irisin with C-terminal his tag produced in HEK293 cells (protein)
chain: DSPSAPVNVTVRHLKANSAVVSWDVLEDEVVIGFAISQQKKDVRMLRFIQEVNTTTRSCALWDLEEDTEYIVHVQAISIQGQSPASEPVLFKTPREAEKMASKNKDEVTMKE
modifications: left off: small tags and cut ends
notes: secreted cleaved form of FNDC5; recombinant human/mouse irisin with C-terminal his tag produced in HEK293 cells
B1 was tested, and the “Ucp1 protein level in whole tissue (western blot)” value (mice, irisin injections) was “also increased” and the “increase of mRNA level of Ucp1” value (wild-type mice, 1 mg/kg irisin every other day for 6 days) was “more than 2 fold”.

Source: patent US20210063414A1, “METHODS FOR PREVENTING AND/OR TREATING BONE LOSS CONDITIONS BY MODULATING IRISIN” (Dana-Farber Cancer Institute, Inc., priority 2018, published 2021)
